Experimental data published in US20240228562A1, “NOVEL LIPOCALIN MUTEINS SPECIFIC FOR CONNECTIVE TISSUE GROWTH FACTOR (CTGF)” (PIERIS PHARMACEUTICALS GMBH, priority 2021, published 2024).
Numbering of substitutions follows the chain as printed. Marks after values point to notes of the source that are not given here. Values belong to the molecule of their own block, whether it stands above or below them.

Assays:
[1] = test system: CCL-206 lung fibroblasts co-cultured with primary murine Epcam-positive epithelial progenitor cells; assay: Lung organoid formation model; assay type: cell-based; conditions: 14 days treatment; nintedanib 100 nM; SEQ ID NO: 74 at 100 nM
Procedure: The effect of CTGF-targeting lipocalin muteins was analyzed using an organoid model for lung regeneration. In this model, CCL-206 lung fibroblasts are co-cultured with freshly isolated primary murine Epcam-positive epithelial progenitor cells, and the number of formed organoids is analyzed after 14 days. TGF-b1 pre-treatment of CCL-206 fibroblasts leads to an impaired organoid formation and resembles an impairment of lung regeneration as for example observed in lung disease, such as IPF. The impaired formation of organoids can be rescued by treatment with different drugs, such as nintedanib, which is used as a positive control in this model. […] Analysis of organoid numbers confirmed the impairment of organoid formation by TGF-b1 stimulation.

[2] = test system: TGF-β1-stimulated normal human lung fibroblasts (NHLFs); assay: Binding to activated human lung fibroblasts; assay type: cell-based; conditions: 24 h incubation with 10 ng/ml TGF-β1; immunofluorescence of lipocalin scaffold
Procedure: Binding of the CTGF-targeting lipocalin muteins and fusion proteins disclosed herein to CTGF-expressing, TGF-β1-stimulated normal human lung fibroblasts (NHLFs) was tested by incubating NHLFs for 24 h with constructs and 10 ng/ml TGF-β1, which induces CTGF expression. NHLFs without TGF-β1 stimulation were included as negative control. Constructs were detected with a secondary antibody against the lipocalin scaffold coupled to AlexaFluor647 after NHLFs were fixed in 4% PFA and blocked with 5% BSA. Images were acquired on the Cytation5 Reader (Biotek). Signals were quantified in Gene5 software and normalized to the respective controls. For the experiments, cells were grown under conditions that facilitate pseudo-3D extracellular matrix deposition as described by Good et al. (Good et al., BMC Biomed Eng, 1:14 (2019)).
Representative data are shown in FIG. 4 and illustrate the ability of the CTGF-targeting lipocalin muteins and fusion proteins disclosed herein to bind to activated human lung fibroblasts expressing CTGF in a concentration-dependent manner.

[3] = Nebulization behavior, droplet size distribution by laser diffraction; assay type: physicochemical; conditions: vibrating mesh nebulizer, Malvern Spraytec
Procedure: The suitability of the CTGF-targeting lipocalin muteins and fusion proteins disclosed herein for administration via inhalation was tested using a commercially available vibrating mesh nebulizer (Philips InnoSpire Go®). Droplet size distribution was characterized by laser diffraction using the nebulizer in conjunction with Malvern Spraytec and inhalation cell.
Representative data for the exemplary CTGF-targeting lipocalin mutein of SEQ ID NO: 23 (A) and for the fusion protein of SEQ ID NO: 74 (B) are shown in FIG. 5 and below Table 10. […] Nebulization of the lipocalin muteins and fusion proteins had no negative impact on the stability and activity of the molecules (data not shown).

CTGF = target: T1, CTGF (Homo sapiens, UniProt P29279); assay: ELISA-based competition assay with anti-CTGF antibody; assay type: binding; conditions: data not shown
T1 sequence (P29279 27-349): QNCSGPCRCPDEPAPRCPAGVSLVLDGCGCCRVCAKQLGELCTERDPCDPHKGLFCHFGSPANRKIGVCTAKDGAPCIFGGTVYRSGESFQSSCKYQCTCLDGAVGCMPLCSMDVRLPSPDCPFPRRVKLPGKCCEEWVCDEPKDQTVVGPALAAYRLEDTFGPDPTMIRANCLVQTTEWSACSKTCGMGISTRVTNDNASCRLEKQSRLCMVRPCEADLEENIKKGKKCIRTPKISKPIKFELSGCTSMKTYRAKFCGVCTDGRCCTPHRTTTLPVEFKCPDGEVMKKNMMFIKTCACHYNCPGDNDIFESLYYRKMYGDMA

cynomolgus CTGF = assay: SPR binding kinetics and affinity, cynomolgus CTGF; parameters: key: B binding without determination of kinetics constants; conditions: 25° C., 1:1 binding model
Outline: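 Targets either amine-coupled to CM5 chip (300–1100 RU; Fc-tagged human, untagged rat/murine) or Fc-captured via anti-human IgG; muteins injected 180 s contact, 900–3600 s dissociation, 30 μL/min, 25° C. Double-referenced sensorgrams fit to 1:1 model giving kon, koff and KD.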

Mouse lung PK = assay type: in vivo; conditions: mice
Procedure: The lipocalin mutein (100 μg/mouse) was oropharyngeally administered to mice, and exposure in different compartments was measured after 2, 4, 8 and 24 h by ELISA (FIG. 7A). 100 μg of the antibody were administered to mice via intravenous infusion, and exposure was measured after 1, 8, 24 and 96 h by ELISA (FIG. 7B).

[4] = mutein 100 μg oropharyngeal, antibody 100 μg intravenous, compartment of administration set to 100%

Sequence of cynomolgus CTGF (as listed by the source): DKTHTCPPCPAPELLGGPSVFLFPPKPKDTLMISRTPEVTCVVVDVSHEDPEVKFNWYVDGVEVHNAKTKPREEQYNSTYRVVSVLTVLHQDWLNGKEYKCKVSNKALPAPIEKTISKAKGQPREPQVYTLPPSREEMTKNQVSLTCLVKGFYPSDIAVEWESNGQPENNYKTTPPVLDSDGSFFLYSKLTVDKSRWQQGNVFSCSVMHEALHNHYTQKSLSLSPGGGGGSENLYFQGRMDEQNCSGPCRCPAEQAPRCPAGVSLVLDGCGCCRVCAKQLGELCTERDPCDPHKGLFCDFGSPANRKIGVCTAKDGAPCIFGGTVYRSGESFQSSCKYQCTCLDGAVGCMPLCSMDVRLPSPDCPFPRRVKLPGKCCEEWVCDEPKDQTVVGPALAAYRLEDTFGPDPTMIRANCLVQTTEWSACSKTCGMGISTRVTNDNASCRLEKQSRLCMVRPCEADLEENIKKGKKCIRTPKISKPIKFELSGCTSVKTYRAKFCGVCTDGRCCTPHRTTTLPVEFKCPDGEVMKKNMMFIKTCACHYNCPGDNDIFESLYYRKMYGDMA

Binding to TGFβ-activated NHLFs [2]: binding
B1: SEQ ID NO: 74: fusion protein comprising two CTGF-binding lipocalin muteins (protein)
chain: QDSTSDLIPAPPLSKVPLQQNFQDNQFQGKWYVVGLAGNAILREDKQPAKMFATIYELKEDKSYDVTSVRFEAKSCKYTIKTFVPGSQPGEFTAGYIKSAPGQTSTLVRVVSTNYNQHAMVFFKHVTQNREIFVITLYGRTKELTSELKENFIRFSKSLGLPENHIVFPVPIDQCIDGGGGGSGGGGSGGGGSQDSTSDLIPAPPLSKVPLQQNFQDNQFQGKWYVVGWAGNVKLREDKQPQKMSATIYELKEDKSYDVTEVVFEQKKCHYIIKTFVPGSQPGEFTAGDIKSPPGYTSSLVRVVSTNYNQHAMVFFKKVSQNREFFWITLYGRTKELTSELKENFIRFSKSLGLPENHIVFPVPIDQCIDG
modifications: fusion protein
Effect on TGF-b1 impaired organoid formation [1]: even stronger trend for improved organoid formation
% V < 1 μm [3]: 0.984%
% V < 5 μm [3]: 54.81%
% V < 10 μm [3]: 88.4%
Dv10 [3]: 1.8 μm
Dv50 [3]: 4.6 μm
Dv90 [3]: 10.5 μm
Dv10 ([3]; listed as 74): 1.824 μm
Dv50 ([3]; listed as 74): 4.589 μm

Competition with antibody of SEQ ID NOs: 60 and 61 for binding to CTGF (CTGF): competed with the antibody
cynomolgus CTGF KD (cynomolgus CTGF): B
cynomolgus CTGF koff (cynomolgus CTGF): B
cynomolgus CTGF kon (cynomolgus CTGF): B
Binding to TGFβ-activated NHLFs [2]: binding
B2: SEQ ID NO: 23: optimized CTGF-binding hNGAL lipocalin mutein (protein)
chain: QDSTSDLIPAPPLSKVPLQQNFQDNQFQGKWYVVGVAGNAILRPDKQPAKMFATIYELKEDKSYDVTSVRFEAKSCKYTIKTFVPGSQPGEFTSGQIKSAPGQTSTLVRVVSTNYNQHAMVFFKHVSQNREIFVITLYGRTKELTSELKENFIRFSKSLGLPENHIVFPVPIDQCIDG
modifications: lipocalin mutein
% V < 1 μm [3]: 1.874%
% V < 5 μm [3]: 68.97%
% V < 10 μm [3]: 93.55%
Dv10 [3]: 1.4 μm
Dv50 [3]: 3.5 μm
Dv90 [3]: 8.6 μm
Dv10 ([3]; listed as 23): 1.471 μm
Dv50 ([3]; listed as 23): 3.484 μm
Dv90 ([3]; listed as 23): 8.622 μm
Exposure in the lung (Mouse lung PK; 100 μg/mouse oropharyngeal, 2-24 h, ELISA): significant exposure in the lung over 24 h
Lung exposure compared to plasma (Mouse lung PK; [4]): 100* %
Plasma exposure compared to lung (Mouse lung PK; [4]): approx. 1%
Plasma exposure compared to lung (Mouse lung PK; mutein 100 μg oropharyngeal, antibody 100 μg intravenous, compartment of administration set to 100%, listed as 23): 0.9%

cynomolgus CTGF koff (cynomolgus CTGF): 7.57e-05 s⁻¹
cynomolgus CTGF kon (cynomolgus CTGF): 107000 M⁻¹ s⁻¹
B3: SEQ ID NO: 15: optimized CTGF-binding hNGAL lipocalin mutein (protein)
chain: B2 chain with V36L, P44E, S94A, Q96Y, S127T
modifications: lipocalin mutein
